Read-outs that look alike come from different tables or passages of the source.
Key:
[1] = target: 2-CysPrx C54S variant, non-tagged (Arabidopsis thaliana); assay: SEC
[2] = target: 2-CysPrx C176S variant, non-tagged (Arabidopsis thaliana); assay: SEC
[3] = target: 2-CysPrx C176S variant, non-tagged (Arabidopsis thaliana); assay: ITC
[4] = target: 2-CysPrx C-terminally truncated variant ΔC (–20 aa), non-tagged (Arabidopsis thaliana); assay: SEC
[5] = target: 2-CysPrx F84R variant, non-tagged (Arabidopsis thaliana); assay: SEC
[6] = target: 2-CysPrx F84R variant, non-tagged (Arabidopsis thaliana); assay: SEC; remark: listed apart in the source
[7] = target: 2-Cysteine peroxiredoxin A (At2-CysPrx) wild type, non-tagged (Arabidopsis thaliana); assay: SEC
[8] = target: 2-Cysteine peroxiredoxin A (At2-CysPrx) wild type, non-tagged (Arabidopsis thaliana); assay: SEC; remark: listed apart in the source
[9] = target: 2-Cysteine peroxiredoxin A (At2-CysPrx) wild type, non-tagged (Arabidopsis thaliana); assay: ITC

A stoichiometry N [1] of 10 was found for “2-CysPrx C54S variant, non-tagged (enzyme)” in this work.
A stoichiometry N [2] of 10, a CTC (critical transition concentration, oligomer to dimers) [3] of 0.63 µM and a dH (dissociation enthalpy ΔHm) [3] of 6750 kJ/mol were found for “2-CysPrx C176S variant, non-tagged (enzyme)” in this work.
A stoichiometry N [4] of 2 was found for “2-CysPrx C-terminally truncated variant ΔC (–20 aa), non-tagged (enzyme)” in this work.
A stoichiometry N [5] of 2 and a stoichiometry N [6] of 2 were found for “2-CysPrx F84R variant, non-tagged (enzyme)” in this work.
A stoichiometry N [7] of 10, a stoichiometry N [8] of 2 and a CTC (critical transition concentration, oligomer to dimers) [9] of 3.73 µM were found for “2-Cysteine peroxiredoxin A (At2-CysPrx) wild type, non-tagged (enzyme)” in this work. The dH (dissociation enthalpy ΔHm) [9] was 301 kJ/mol.

— paper PMC3733160
